The values that follow are results of earlier work, collected in publication PMC6728138.

The target of series [1] is PVIVIT peptide (synthetic construct).
The next series concerns the target AKAP79 (Homo sapiens) (UniProt P24588).

Sequence of AKAP79 (Homo sapiens) (P24588 whole entry): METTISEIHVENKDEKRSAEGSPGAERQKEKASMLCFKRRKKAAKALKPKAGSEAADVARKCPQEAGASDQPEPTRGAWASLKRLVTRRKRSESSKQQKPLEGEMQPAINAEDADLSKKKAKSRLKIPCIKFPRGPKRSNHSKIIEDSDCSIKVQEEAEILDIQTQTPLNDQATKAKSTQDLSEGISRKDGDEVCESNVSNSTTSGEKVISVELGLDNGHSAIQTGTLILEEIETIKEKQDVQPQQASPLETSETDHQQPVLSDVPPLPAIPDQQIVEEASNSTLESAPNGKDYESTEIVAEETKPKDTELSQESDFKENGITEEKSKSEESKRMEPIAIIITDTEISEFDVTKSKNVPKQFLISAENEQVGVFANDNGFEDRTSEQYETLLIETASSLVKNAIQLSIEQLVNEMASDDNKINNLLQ

Broadly, the Kd is the free concentration of one partner at which half of the binding sites on the other are occupied at equilibrium, for simple one-to-one binding. On to Calcineurin (from UniProt Q08209), for which the Kd (in series [1]; in the series with AKAP79 (Homo sapiens)) was 500 nM each time.
